T1: LCAT (purified from human plasma) (human, UniProt P04180 25-440)
T1 sequence (looked up): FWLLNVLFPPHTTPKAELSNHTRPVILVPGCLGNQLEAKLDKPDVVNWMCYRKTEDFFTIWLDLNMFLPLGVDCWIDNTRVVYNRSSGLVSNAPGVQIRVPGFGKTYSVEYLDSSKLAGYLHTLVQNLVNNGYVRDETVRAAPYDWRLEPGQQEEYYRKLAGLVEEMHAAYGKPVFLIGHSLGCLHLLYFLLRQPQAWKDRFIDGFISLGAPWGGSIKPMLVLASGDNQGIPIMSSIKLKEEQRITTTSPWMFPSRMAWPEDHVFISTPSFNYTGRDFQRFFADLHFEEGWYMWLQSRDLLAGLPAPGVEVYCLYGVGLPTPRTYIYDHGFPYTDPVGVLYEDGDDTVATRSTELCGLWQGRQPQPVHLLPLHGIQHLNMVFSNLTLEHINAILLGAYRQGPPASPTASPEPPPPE


Experiments:
[1] = target: T1, LCAT (purified from human plasma); test: cell-based or functional assay
[2] = target: the molecule itself; test: tryptophan fluorescence emission maximum (332 nm), peptide free in buffer; self-association

| ACTIVITY (%) LCAT [1] [%] | Binder | binding result [2] |
| --- | --- | --- |
| 63 | PVLDLFRELGNELLEALKQKLK [peptide 9] |  |
|  | PVLDLFRELWNELLEALKQKLK (peptide 4 containing a Trp residue at position 10) [peptide 15] | binds |
